As usually defined, the EC50 is the concentration giving half of the maximal effect. The term Kd denotes the free concentration of one partner at which half of the binding sites on the other are occupied at equilibrium, for simple one-to-one binding. In general, koff refers to a measure of how fast the partners let go of each other. What is called kon is the second-order rate constant of association.

Assay [1] addresses T1, human Trop2 on cells (human, UniProt P09758 27-323).
T1 sequence (looked up): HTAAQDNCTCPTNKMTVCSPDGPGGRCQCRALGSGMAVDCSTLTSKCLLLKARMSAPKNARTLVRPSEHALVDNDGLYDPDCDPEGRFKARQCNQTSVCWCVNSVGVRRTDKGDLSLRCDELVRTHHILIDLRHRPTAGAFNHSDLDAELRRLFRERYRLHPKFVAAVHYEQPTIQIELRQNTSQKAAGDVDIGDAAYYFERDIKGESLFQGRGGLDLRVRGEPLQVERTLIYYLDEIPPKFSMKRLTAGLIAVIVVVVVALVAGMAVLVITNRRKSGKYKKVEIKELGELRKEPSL
The assay can be described thus: cell-based or functional assay.

Assay [2] addresses T1, human Trop2 on cells. The assay can be described thus: flow cytometry on BxPC-3 tumor cells (second panel of the table). Here is the method: BxPC-3 tumor cells (the Cell Bank of the Chinese Academy of Sciences, #TCHu 12) were digested with 3 mL of TrypLE, and the digestion was stopped with 7 mL of the corresponding medium. […] The cell solution was centrifuged, and the cells were washed once with PBS+[…] buffer. […] The cells were washed once with PBS+0.50% BSA. The cells were incubated at 4° C. for 1 h in the dark with 100 μL of Alexa Fluor 488 goat anti-human IgG (Life technologies, #A-11013) diluted at 1:1000, and washed twice with PBS+0.50% BSA. The cells were resuspended in 200 μL of PBS+0.50% BSA. The suspension was centrifuged at 4° C. for 5 min at 2000 rpm and tested using a FACS verse flow cytometer or NovoCyte flow cytometer (ACEA Biosciences). All procedures were performed on ice.

The target of assay [3] is T2, human TROP2 protein (Sino Biological, #10428-H08H) (human, UniProt P09758 27-274).
T2 construct: bought protein; also called human Trop2 protein antigen (His tag); not shown: His tag
T2 sequence (looked up): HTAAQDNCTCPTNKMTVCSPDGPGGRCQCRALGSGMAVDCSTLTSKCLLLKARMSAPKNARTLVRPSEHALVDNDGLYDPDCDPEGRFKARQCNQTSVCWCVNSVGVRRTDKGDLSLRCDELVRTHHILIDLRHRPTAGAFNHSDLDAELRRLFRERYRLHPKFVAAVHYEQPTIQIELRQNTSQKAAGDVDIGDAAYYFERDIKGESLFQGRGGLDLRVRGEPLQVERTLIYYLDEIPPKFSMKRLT
The assay can be described thus: BLI epitope binning (Octet), biotinylated human Trop2 on SA sensor; row = primary antibody; competitor (secondary antibody, column): hRS7. How it is done:
(§1) The biotinylated mixture after the incubation was washed three times with PBS and a Zeba centrifugal desalting column (Thermo Fisher, #89882) to remove excess biotin. The biotinylated Trop2 protein was captured by an SA sensor (Pall ForteBio, #18-5019) with the loading baseline set at 0.3 nm. The sensor was immersed in a well of assay buffer containing 50 nM primary antibody for 300 s. […] The binding assay was performed by comparing the binding of the secondary antibody to Trop2 in the presence of the primary antibody to the blocking of the primary antibody itself.
In general terms: In BLI a coated tip is dipped into the sample, and binding shifts an interference pattern.

Assay [4] deals with T2, human TROP2 protein (Sino Biological, …). The assay can be described thus: BLI epitope binning (Octet), biotinylated human Trop2 on SA sensor; row = primary antibody; competitor (secondary antibody, column): PR001166. Here is the method: as §1
In assay [5] the target is T3, monkey Trop2 protein (Sino Biological, #90893-C08H) (monkey, UniProt A0A2K5UE71 27-274).
T3 construct: bought protein; also called monkey Trop2 protein antigen (His tag)
T3 sequence: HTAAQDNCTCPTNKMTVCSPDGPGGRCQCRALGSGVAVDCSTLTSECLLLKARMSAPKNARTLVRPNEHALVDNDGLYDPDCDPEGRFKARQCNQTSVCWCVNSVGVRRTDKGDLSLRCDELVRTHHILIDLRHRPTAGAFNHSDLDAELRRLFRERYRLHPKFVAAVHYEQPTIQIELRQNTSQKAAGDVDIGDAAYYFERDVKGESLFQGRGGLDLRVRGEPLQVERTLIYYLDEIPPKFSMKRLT
In words: SPR, Biacore T200, antigen immobilised on CM5 chip. How it is done: (§2) HBS-EP+ (10 mM HEPES, 150 mM NaCl, 3 mM EDTA, and 0.05% P20, pH 7.4, GE Healthcare, BR-1001-88) was used as a running buffer throughout the test. […] Data were analyzed using Biacore T200 (GE Healthcare, T200 model, #BIAC-B20-03) Evaluation 3.1 software.
On the technique in general: In SPR one partner is held on a chip, and binding of the other changes the refractive index at the surface.

For assay [6], the target named is T2, human TROP2 protein (Sino Biological, …). In words: SPR, Biacore T200, antigen immobilised on CM5 chip. Here is the method: as §2
Assay [7] shares this target. The assay can be described thus: BLI epitope binning (Octet), biotinylated human Trop2 on SA sensor; row = primary antibody; competitor (secondary antibody, column): PR001142. Here is the method:
as §1

B1: comparative example 2 antibody Tab (hRS7) (antibody, human IgG1, kappa, V domains shown)
VH: QVQLQQSGSELKKPGASVKVSCKASGYTFTNYGMNWVKQAPGQGLKWMGWINTYTGEPTYTDDFKGRFAFSLDTSVSTAYLQISSLKADDTAVYFCARGGFGSSYWYFDVWGQGSLVTVSS
VL: DIQLTQSPSSLSASVGDRVSITCKASQDVSIAVAWYQQKPGKAPKLLIYSASYRYTGVPDRFSGSGSGTDFTLTISSLQPEDFAVYYCQQHYITPLTFGAGTKVEIKR
notes: prepared on the basis of sacituzumab govitecan (ChemPartner, #T07-001); naked antibody
Consider B1, for which, in the assay with human Trop2 on cells [1], the “ADCC (donor 1152#) EC50(nM), BxPC-3 + PBMC, LDH release” value (“ADCC (donor 1152#) EC50(nM)” for short) amounted to 0.0391 nM; the “ADCC (donor 1152#) Maximum cell killing %” value was 42.1%; the “ADCC (donor 1152#) Minimum cell killing %” value turned out to be 4.32%; the “ADCC (donor 2153#) EC50(nM), BxPC-3 + PBMC, LDH release” value (shortened to “ADCC (donor 2153#) EC50(nM)”) amounted to 0.08 nM. In addition, in the assay with human Trop2 on cells [1], the “ADCC (donor 2153#) Maximum cell killing %” value is 62.6% and the “ADCC (donor 2153#) Minimum cell killing %” value turned out to be 10.2%. The molecule also yielded a half-maximal effective concentration (EC50) with human Trop2 on cells [2] of 2.67 nM. Also, in assay [3], the “Inhibition rate (%)” value came out at 96.5%. In addition, the “Inhibition rate (%)” value in assay [4] amounted to 7.34%. In assay [5], the dissociation constant (Kd) is 0.619 nM. The dissociation constant (Kd) in assay [6] came out at 0.601 nM. In addition, the “Inhibition rate (%)” value in assay [7] was found to be 93.3%.

B2: PR001166 (antibody, human IgG1, kappa, V domains shown)
VH: QVQLQESGPGLVKPSETLSLTCAVSGYSISSGYFWAWIRQPPGKGLEWIGSIYHSGRTHYNPSLKSRVIISLDTSKNQFSLKLRSVTAADSAVYYCAREGYASGSYYWGQGTLVTVSS
VL: EIVMTQSPATLSVSPGERATLSCRSSQSVNNYLAWFQQKPGQAPRLLIYDSSTRATGIPARFSGSGSGTEFTLTISSLQSEDFAFYFCQQYENWPLTFGGGTKVEIKR
notes: fully human IgG1/kappa; also called antibody No. (27)
On to B2, for which, in the assay with human Trop2 on cells [1], the “ADCC (donor 1152#) EC50(nM)” value came out at 0.02 nM; the “ADCC (donor 1152#) Maximum cell killing %” value worked out at 36.5%; the “ADCC (donor 1152#) Minimum cell killing %” value is 3.25%; the “ADCC (donor 2153#) EC50(nM)” value was determined as 0.0347 nM. In the assay with human Trop2 on cells [1], the “ADCC (donor 2153#) Maximum cell killing %” value was 69.1% and the “ADCC (donor 2153#) Minimum cell killing %” value amounted to 11.9%. Further, in assay [3], the “Inhibition rate (%)” value came out at 21.8%. In assay [4], the “Inhibition rate (%)” value is 102%. In addition, in assay [5], binding was characterised by a dissociation constant (Kd) of 0.0856 nM, the koff stood at 0.000137 s⁻¹ and the on-rate constant (kon) is 1.59e+06 M⁻¹ s⁻¹. In assay [6], this molecule yielded a dissociation constant Kd of 0.0279 nM, a koff of 5.78e-05 s⁻¹ and a kon of 2.07e+06 M⁻¹ s⁻¹. Further, the “Inhibition rate (%)” value in assay [7] came out at 85.4%.

B3: PR001165 (antibody, human IgG1, kappa, V domains shown)
VH: QVQLVESGGGVVQPGRSLRLSCEASGFTFSHYGMHWVRQAPGKGLEWVAVIWYDGIKTYYVESVKGRFTISRDNSKNTLNLQMNRLRAEDTAVYYCARDGGFGESNYYGLDVWGQGTTVTVSS
VL: DIQLTQSPSFLSASVGDRVTITCRASQGISSYLGWYQQKPGKAPKLLIYIASTLQSGVPSRFSGSGSGTEFTLTISSLQPEDFATYYCQQLNSYPYTFGQGTKLEIKR
notes: fully human IgG1/kappa; also called antibody No. (26)
In the case of B3, in the assay with human Trop2 on cells [1], the “ADCC (donor 1152#) EC50(nM)” value is 0.0324 nM; the “ADCC (donor 1152#) Maximum cell killing %” value stood at 39%; the “ADCC (donor 1152#) Minimum cell killing %” value turned out to be 5.79%; the “ADCC (donor 2153#) EC50(nM)” value is 0.0616 nM. In addition, in the assay with human Trop2 on cells [1], the “ADCC (donor 2153#) Maximum cell killing %” value came to 70.8% and the “ADCC (donor 2153#) Minimum cell killing %” value came out at 14%. In addition, in the assay with human Trop2 on cells [2], the concentration giving a half-maximal response (EC50) amounted to 1.71 nM. Further, the “Inhibition rate (%)” value in assay [3] turned out to be 96.4%. Moreover, the “Inhibition rate (%)” value in assay [4] amounted to 5.24%. Also, in assay [5], the Kd is 0.491 nM, the koff was found to be 0.000125 s⁻¹ and the kon came out at 255000 M⁻¹ s⁻¹. In assay [6], this molecule showed a Kd of 0.495 nM, a koff of 0.000152 s⁻¹ and an on-rate constant (kon) of 307000 M⁻¹ s⁻¹. The “Inhibition rate (%)” value in assay [7] came to 98.1%.

B4: PR001142 (antibody, human IgG1, kappa, V domains shown)
VH: QVQLQESGPGLVKPSGTLSLTCAVSGDSISSNNWWSWVRQPPGKGLEWIGEIYPGGNPNYNPSLKSRVTISVDKSKNQFSLKLNSVTAADTAVYYCARGSGVISYFDYWGQGTLVTVSS
VL: DIQMTQSPSTLSASVGDRVTITCRASQSIGHWLAWYQQKPGKAPKLLIYKASSLESGVPSRFRGSGSGTEFTLTISSLQPDDFATYYCQQYSSYSPITFGQGSRLEIKR
notes: fully human IgG1/kappa; also called antibody No. (9)
B4: in the assay with human Trop2 on cells [1], the “ADCC (donor 1152#) EC50(nM)” value was found to be 0.0279 nM; the “ADCC (donor 1152#) Maximum cell killing %” value was 41.6%; the “ADCC (donor 1152#) Minimum cell killing %” value is 4.47%; the “ADCC (donor 2153#) EC50(nM)” value stood at 0.0547 nM. Also, in the assay with human Trop2 on cells [1], the “ADCC (donor 2153#) Maximum cell killing %” value was 58.8% and the “ADCC (donor 2153#) Minimum cell killing %” value was found to be 9.28%. Further, in assay [3], the “Inhibition rate (%)” value was 97.8%. In addition, in assay [4], the “Inhibition rate (%)” value worked out at 85.5%. In assay [5], this molecule yielded a Kd of 0.374 nM, a koff of 0.000179 s⁻¹ and a kon of 479000 M⁻¹ s⁻¹. Moreover, in assay [6], the Kd came out at 0.53 nM, the off-rate constant (koff) is 0.000252 s⁻¹ and the association rate constant (kon) worked out at 475000 M⁻¹ s⁻¹. Also, the “Inhibition rate (%)” value in assay [7] was 101%.
